# B1: SAS6L (natural protein)
# chain: MATNFGFGGGASGCTDSVNFLAQVDTSAIDEMDPSLADGHTLVYSREVPFEIRLQETGSSLPGDVGRLEPIRVKILILGEETNPQHVRVELTSENDLFLNYTHALNEDLFRQMQERQKLMIEFGDYPSVLIKMLNSCIKEPHCFLAVLIMHTNGKARLDFIQSMEYKFIELLCLDCVQSTEEFTRRDMTFRYNALKSKLALLQARLHDIGCLLKLKSPSLLLHLQKAAQQQAHRRQQQVAAAAPIPGKLRAPGTTEGASTRFL
# notes: source: endogenous, isolated conoids of T. gondii tachyzoites (CHAPS lysis, sonication, α-chymotrypsin)
# B2: ICMAP2 (natural protein)
# chain: MVTFKSGEVDEHHESFLRREPRSPSRSPSAVQSSWKPVCYIEEIDSLTTFPSSASCDSSSKTKSSRSLISTSLDQPRDSASSSSEPRQSGLLHVNAQDLSPSRPPESLYQTGYVRSPSSFDGTLSCVGEKTGVVRGKSGHPPLSFRSPRMQSVAHSEDRDRKGLTYSFDAYPPEVFSRWKGRSRTGESCGLVTSSRGRSPCSRSPPGRSFPRCVDPQTDRIEEASQNCLPQSSELHASEVLGPADPAACPTQKPTVEPDSSVAASVFCPGTQAESQQVPSLPTDAFSGGDPVRSQVGSKRSHLLEDIQGKTRCSAARAVIDFDASGIRSVVVSDLGGTPLRLSPYLDTLPRSNHPLVLSKAATSVPPYCSSSSENFSEARQGGESRLTGGAAPEGGKLKASAVLGGNPQPRSCPSGGTQAMGGKYQAEESPTRSVFRGKVTVPAAEVHTTQAAGCPSERKVGEFRCQTDTDTLRHFRKSLRSYSDSPKRPETNSLNQGRSGSSRIIGQLSDATFGCRDSMASVRGAFAPPTSTVSKSLRHDEAVLREQGIKVRQKDAIFLKGVEKRHLGMQAGRQDSKPRYGLESAASCNATGAGEDPSPGFRIAGRASSSICAGGSSGESMNSAFMRGLPGSASNVRLPQWMRDYGVEDPSLQTDGCSRNVVSTRHPGTCQYSSADARRPRMRVSAGAPANLTPYLWDENSDRDGDNSLEDISCGPPYRGEMTYSITHSGNSGNQLSSQLPPAPLSVPGDVGSFGFPVAHFVCSNCGATAVPPQCPTCGAVIVQFDGTTQIPVAYRTNGTDALGLASRAVLRNGDSRSVQFSGEADPQSRSYAPYDASPSRSRGPSASRRSHVHSSRQERRELSRGEAETERCTAGTARRSGMVAVTAKKSGPPSRQRLVASSGPSLPSTKKLASQVWGSPRVCAILCSFLGLPQLLTIRRCSKNLLVAAQFEMRYVLYGTLQQLLREEETSKKATSSRPKSCEPPSARNREGRGRTLTPGVASTASARDRSLPACPFNAQTLTRLLELSPAELTALKNGQLPDRRVADAKTPRPEELRARASRLRRLHAERVEEQRRRVSARTSGKRVDREATEPVLVGLDEEMQLRREMQLQHEEELLMRERRLQQQECELFKKQQEIWLQETQQRLRQNITRNGRPHFAVPEPAALSGAGASFPCAHPGGWQKRHVGFDDDLVKGPEIDYESEPPSFRRLRHSFLKLWNYNEAQFKAALYRHAFSSFPAYNYDTTAILCRCIYQLCADATSALPLNSILMLLTDRQSYLWRRMARLSGYVICSFTLNGCRREIGPSMPTTIQRVVPIPLDDGCWDGGRSRGSHRATPSRGRGGASRVGREFGDDSSEDPIPPFCWKEGIRGAVLESIELKLAKLSEEFIDEFVLYGRQQGLLLQLQGADSTVNGRLLATTLRRFCKQPEDRYVLMDLYEWLAAAMTFSQKCIKAKIEAAKRASPSPQCRIARPCTGRLQAFPPYERSEGRYGGRSTTPAFGSSVRGRSGCPGRVETPGATSAMTRGRSIARVSMGARRGVVEDSVHSIAYENALSSRTKSRERHADTPTRSRLVLRGNRAADFQRPVRGRSPDSSANHTGVFGRRSDGKLSTQSGVRSSSASRSRLTNQVSSGLTAREAAALCRLLQNQGKILEEVKQILNNMSAPGRRHTRVP
# notes: as for B1
# B3: CF1 (natural protein)
# chain: MQPLAREVSRLPRSGPLGPVAAKKDDKTFIPTNVRVSPGEKNDRVVKTEKIDDSTDGSGSHDGPRNLETQLEALTREVRELTLRVQEEKEMKELLNSQLNDAYEELADARSEHRVRGFAGASGARLRGVRGLPAFEARWMEPEHPTAQTAIRSQQEFELLLQEERARRHTMFEQYERHMKVMRKNHHKEKLETKKKVLSQVEFLIKKYRRLASDAVAVAKRERERVAEERKRARELAERACKNFEADLKGRTKTALEQYRRLVQEAHTAAKQEREELHNKCKELQETVDNERREFDTLIVREAEAKMAKFRASYARMKQQTEEERRQYGVMMHEIAKRVEKECAEYEEFVIRTMRDLLQSKGVEMTESGLRDFFQKKREEMRPSGEGHSSTDGLVTVKYRFQAADPEDLQ
# notes: as for B1
# B4: ICMT-associated protein 1 (ICMAP1) (natural protein)
# chain: MMADLTLEPRGAGASRYLMTDLEDLDSSEGNSLVPYSRLGKSGNTDANLYSTPDMTTRYPGSRGLLRDDSRGSGGLDDPMGLPMRSLSPKDLGGRGGPRLSPAELKAQVRLRNMCGKPLRPDDVLVTRILTGEKSYWEALDEMRNLCASLTVENEKLKTGNAKATTKALEVEQKSRAEIRRLQTLQRVTRDELEMKLQDLTAENVRLRQSRDVERALQEQKVHMQKQIERLKQDSEEKGRLAAQRAREIHHLKEETQRSTDEAEALKGRVESLQAKLAEAISQKNLLLIRVKKDIRDIQDSAQQAREAVLAEKARSEQQAAEVEKHAQMQLQLHERKIRDLQQTVASEESQGEYYRRKYEEASKQLAKLKTQFDSTQNKTETDIALRERKLQELSESLNAAQKARDRSAQELNAMRSKYNILRGELEKAEQRRNHAEQEAIRAGAQVETMDVGRSTLEAKVSELQLERSGLMEKLQLAEKEVSELREAKNKIKASLDLAYQKEQFRLLEENSRIGTDLKVAQQQLDTVTRQKEQLQTDAERLRGAEEELREMQVDFLKMKTTLQLVQGRPCDNAKVVADGVVNALRAYAELKKATETQEQSMASLSQQNQALSQKANEAATLTREMLTLESENRSLNEHIASLTAELRKIGDQQTALQLEKEAQDEAFRQQIERVQKEAEARRRELDHQLEQAKERHRQETTKLTAELDRVKKLHDAEKKRTSELQVQVEDVKAEATQHTEGLEKRYQEQLRERNAQIEALSSEREEFAAETRAEIQQLKKTHADALKAARADRDKVLAERESHYQQQLEEMRTRQEQHAASQHHQRQELQQRLQQLELSFQETEANLRREVDAKAADVRSLQGQKEKLERELGAVKERLEDEQRSADRNLERVKRERQQDVERLQKELDDATRLAAEAERTAAEKIQSLETDVKNTRDQLKKANAGSEEKESLLEASKTRYADLENKHNDVVQKFNDLSEENKKLKKDLSAAADDKEAKEKQIKKLTDAQARDQQEIAAIKQKEREAIAAGDRLNAEIEKLKAEHRSAELKLKNDIDAVTTDKEAVEAKLAQVQKMHKEEAEALNSRIAQLTKEKADLEKAQRNLEEEKAALEQEKRKAASEAKVKQDLLEQKIAELQKQNQNLENGLRAAKAAGAAAAARPAPGAPGQAPPAAQAPQAGAPPAEEGGLFSWWGGGAAEAPPEAPASSAGAPAEAAPAPAAEAESSSWGWW
# notes: as for B1
# How the values were obtained:
# [1] = biological target: the molecule itself; test: cryo-EM structure; conoid fibers (CF), native, from isolated T. gondii conoids after sonication and α-chymotrypsin; single-particle analysis, 2.9 Å (8-nm repeat) and 3.1 Å (24-nm repeat)
# [2] = biological target: the molecule itself; test: cryo-EM structure; intraconoidal microtubule ICMT-1, native, from isolated T. gondii conoids; single-particle analysis, 3.3 Å
Protein,stoichiometry N [1],stoichiometry N [2]
B1,2,–
B2,–,2
B3,2,–
B4,–,2
